Laboratory results taken from PMC10966353.

Target: A/Puerto Rico/8/1934 hemagglutinin with an N-terminal sfGFP, GCN4-pII trimerization motif and Strep-tag II (influenza A virus A/Puerto Rico/8/1934)
Assay: negative stain electron microscopy

Substance: A/Puerto Rico/8/1934 hemagglutinin with an N-terminal sfGFP, GCN4-pII trimerization motif and Strep-tag II
- stoichiometry N: 3
